Experimental data from paper PMC6097701.

Legend:
[1] = molecular target: HA-tagged human surfeit locus protein 4 (HA-Surf4) (human) (UniProt O15260); test: co-sedimentation; crude microsomes from Surf4^KO HEK293A cells transfected with HA-Surf4, permeabilised with CEB (digitonin) 30 min on ice; 400 nM GH (conditioned media in KHMC buffer) 1 hr on ice; pelleted at >100,000 x g; bound GH released with … peptide and read by hGH ELISA; controls: microsomes without CEB and microsomes of untransfected Surf4^KO cells
UniProt O15260, sequence (O15260 whole entry): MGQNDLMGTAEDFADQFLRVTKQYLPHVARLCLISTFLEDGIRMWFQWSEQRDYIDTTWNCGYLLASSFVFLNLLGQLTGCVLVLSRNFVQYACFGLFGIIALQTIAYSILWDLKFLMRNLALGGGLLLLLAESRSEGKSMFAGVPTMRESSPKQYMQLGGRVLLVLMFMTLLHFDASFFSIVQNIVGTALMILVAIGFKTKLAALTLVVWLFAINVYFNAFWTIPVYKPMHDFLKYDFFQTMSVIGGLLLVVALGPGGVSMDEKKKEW

[2] = molecular target: HA-tagged human surfeit locus protein 4 (HA-Surf4) (human) (UniProt O15260); test: binding to immuno-isolated microsomes on magnetic beads, bound GH read by ELISA; titration; microsomes of HA-Surf4-transfected HEK293A cells held on Protein G-Dynabeads with anti-Surf4 carboxy-terminal antibody, CEB-permeabilised; 0, 100, 200, 300, 400 or 800 nM GH for 1 hr at RT in KHMC buffer; GH eluted with … peptide; estimate of the binding constant from half-maximal …

- fold increase in binding after digitonin permeabilisation of the microsomes [1]: > 5 fold
- Kd [2]: 200 to 300 nM
Substance: APV-GH (human growth hormone-1 starting with alanine-proline-valine) (from UniProt P01241 27-217) (natural protein)
